Source: paper PMC5915598, “Structural basis for the activation of acid ceramidase” (Nature Communications, 2018)

Target: T1, human acid ceramidase (aCDase, ASAH1) β-subunit (human, UniProt Q13510 143-395, N-glycosylated (insect cell glycans); disulfide C340 to C31 of the α-subunit; disulfide C388/C392)
T1 construct: acid ceramidase, human, UniProt Q13510; the construct spans residues 22-395 and autocleaves before Cys 143, which becomes the N terminus of the β-subunit: residues 143-395; Made as one chain with the α-subunit and set free by autocleavage; also called 30 kDa β-subunit
T1 sequence (looked up): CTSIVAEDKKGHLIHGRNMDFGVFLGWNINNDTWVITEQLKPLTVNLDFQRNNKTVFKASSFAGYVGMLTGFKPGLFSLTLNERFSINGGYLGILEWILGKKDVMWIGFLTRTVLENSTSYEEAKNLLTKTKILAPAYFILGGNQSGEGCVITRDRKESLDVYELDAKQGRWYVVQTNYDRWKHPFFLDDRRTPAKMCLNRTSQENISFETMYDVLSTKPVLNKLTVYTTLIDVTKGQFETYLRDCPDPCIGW
Assay: crystal structure; autocleaved human aCDase, incubated with 1 mM ceranib-2 and 1 mM Triton X-100, crystallised at 22 °C in 100 mM sodium phosphate-citrate pH 4.3, 200 mM Li2SO4, 20% PEG 1000; the two subunits come from one chain and are also linked by a disulfide
Conditions: both partners purified

B1: human acid ceramidase (aCDase, ASAH1) α-subunit (domain or fragment, UniProt Q13510 22-142, looked up)
chain: QHAPPWTEDCRKSTYPPSGPTYRGAVPWYTINLDLPPYKRWHELMLDKAPVLKVIVNSLKNMINTFVPSGKVMQVVDEKLPGLLGNFPGPFEEEMKGIAAVTDIPLGEIISFNIFYELFTI
modifications: N-glycosylated (insect cell glycans); disulfide C31 to C340 of the β-subunit
notes: acid ceramidase, human, UniProt Q13510 variant Ile93Val; the construct spans residues 22-395 and autocleaves at the peptide bond between Ile 142 and Cys 143, so the α-subunit is residues 22-142; no removal of the tag is told; Residues 141 and 142 are disordered in the structure; also called 13 kDa α-subunit
  binding result: binds
